Test results as given in patent publication US20210292396A1.
“And” between values parts separate entries of the source, which are not always exact repeats. Equal values may be shown once.

Molecular target: gp120 (isolate: 92BR020) (HIV)

Substance	EC50 (read off the curve)
PGT128 (antibody)	0.05 µg/mL
VRC01 (antibody)	0.07 µg/mL
2G12 (antibody)	0.07 µg/mL
PGT135 (antibody)	0.05 µg/mL and 0.1 µg/mL
